Experimental data reported in the Immune Epitope Database (IEDB).
pKd: −log10 of the molar value.

What was measured:
Assay in all cases: IEDB peptide-MHC binding, purified MHC/competitive/radioactivity; filed as Kd, often an IC50 or EC50 that approximates it; ≥ and ≤ were set here for values at or beyond the usual limits of such assays
[1] = biological target: HLA-A*11:01
[2] = biological target: HLA-A*33:01
[3] = biological target: HLA-A*68:01
[4] = biological target: HLA-A*31:01
[5] = biological target: HLA-A*03:01
[6] = source organism: Vaccinia virus WR
[7] = source organism: SARS coronavirus Tor2
[8] = source organism: Dengue virus 3 Sri Lanka/1266/2000
[9] = source organism: Vaccinia virus Copenhagen
[10] = source organism: Dengue virus 4 Philippines/H241/1956
[11] = source organism: Dengue virus 1 Brazil/97-11/1997
[12] = source organism: Mammarenavirus machupoense
[13] = source organism: Dengue virus 2 Jamaica/1409/1983
[14] = source organism: Mammarenavirus guanaritoense
[15] = source organism: SARS coronavirus ZJ0301
[16] = source organism: Dengue virus 2 Peru/IQT2913/1996

Sequence | pKd [1, 6] | pKd [2, 6] | pKd [3, 6] | pKd [4, 6] | pKd [5, 6] | also measured
TTDDLVKSY | 6.13 | 4.74 | 4.92 | 5.33 | ≤ 4.28 | 
WFSQRGGSYK |  |  |  |  |  | pKd [1, 7]: 6.82; pKd [2, 7]: 6.94; pKd [3, 7]: 6.85; pKd [4, 7]: 6.75; pKd [5, 7]: 6.72
LTPIFSDLLK | 8.63 | 5.41 | 7.76 | 5.39 | 7.62 | 
AQYKCVTIK | 7.43 | 4.99 | 5.66 | 6.18 | 7.80 | 
YVPSAEDNY | ≤ 4.11 | ≤ 4.11 | ≤ 4.44 | ≤ 4.11 | ≤ 4.11 | 
TIFTLTVAWR |  |  |  |  |  | pKd [2, 8]: 6.41; pKd [3, 8]: 7.06; pKd [4, 8]: 6.40
RSKMLKRGSR | 5.93 | 6.89 | 6.78 | 9.21 | 6.55 | 
NTFVNFNSVK |  |  |  |  |  | pKd [1, 9]: 7.18; pKd [2, 9]: 6.07; pKd [3, 9]: 7.40; pKd [4, 9]: 5.78; pKd [5, 9]: 7.13
VLHDIGNPK |  |  |  |  |  | pKd [1, 7]: 7.46; pKd [2, 7]: 5.11; pKd [3, 7]: 5.19; pKd [4, 7]: 5.71; pKd [5, 7]: 7.67
IVMLHTTER |  |  |  |  |  | pKd [2, 10]: 7.86; pKd [3, 10]: 7.71; pKd [4, 10]: 8.63
VIDPRRCLK |  |  |  |  |  | pKd [1, 11]: 5.82; pKd [5, 11]: 7.31
TMLRNSELCH |  |  |  |  |  | pKd [1, 12]: ≤ 4.16; pKd [2, 12]: ≤ 4.15; pKd [3, 12]: ≤ 4.15; pKd [4, 12]: 5.05; pKd [5, 12]: 4.99
SVQLSNNKY | 7.48 | 4.87 | 5.90 | 4.76 | 5.57 | 
NLCTHSFRK |  |  |  |  |  | pKd [1, 7]: 5.10; pKd [2, 7]: 5.01; pKd [3, 7]: ≤ 4.61; pKd [4, 7]: 4.87; pKd [5, 7]: 5.61
LFMALVAFLR |  |  |  |  |  | pKd [2, 13]: 7.03; pKd [3, 13]: 6.72; pKd [4, 13]: 7.02
MLVTPSMAMR |  |  |  |  |  | pKd [2, 11]: 7.46; pKd [3, 11]: 7.49; pKd [4, 11]: ≤ 4.29
FNMLKRERNR |  |  |  |  |  | pKd [2, 13]: 7.27
ACNKIKGKK |  |  |  |  |  | pKd [1, 14]: 4.72; pKd [2, 14]: 6.18; pKd [3, 14]: 6.00; pKd [4, 14]: 5.74; pKd [5, 14]: 5.86
GTGLWTHDK | 9.44 | ≤ 4.18 | 6.81 | 6.09 | 7.61 | 

Sequence | pKd [1, 6] | pKd [2, 6] | pKd [3, 6] | pKd [4, 6] | pKd [5, 6] | also measured
LLSCIRNASK | 7.53 | 4.78 | 6.71 | 6.09 | 7.18 | 
ESLLKETIQK | 8.01 | 4.83 | 6.48 | 4.88 | 7.57 | 
TTTIKPVSYK |  |  |  |  |  | pKd [1, 7]: 7.69; pKd [2, 7]: 4.97; pKd [3, 7]: 7.00; pKd [4, 7]: 5.84; pKd [5, 7]: 7.94
FTFGDTALY | 6.72 | ≤ 4.30 | 8.64 | 4.84 | 6.21 | 
EYRLKGESR |  |  |  |  |  | pKd ([2]; source organism: Dengue virus 3 Martinique/1243/1999): 7.73
NSVANRSKQK | 6.28 | ≤ 4.15 | 6.25 | 4.77 | 6.49 | 
QLEDSEYLFR | 7.10 | 7.40 | 7.04 | 6.74 | 6.42 | 
ELGELIGVNY | ≤ 4.16 | ≤ 4.15 | ≤ 4.42 | ≤ 4.15 | ≤ 4.15 | 
EFIRIIRPDY | ≤ 4.16 | 6.03 | 4.91 | 4.86 | ≤ 4.67 | 
IMFEQYFIY | ≤ 4.11 | 5.49 | 6.69 | 6.64 | 8.44 | 
KIAPGIADIR | 5.35 | ≤ 4.27 | 5.27 | 6.45 | 5.78 | 
SSVQLSNNK | 8.28 | ≤ 4.11 | 7.70 | 5.34 | 5.66 | 
LLNSNALLR |  |  |  |  |  | pKd [1, 15]: 6.65; pKd [2, 15]: 5.16; pKd [3, 15]: 6.16; pKd [4, 15]: 6.83; pKd [5, 15]: 7.83
IITVGMLIY | 5.17 | 5.94 | 6.22 | 5.97 | 5.82 | 
LLMHLVSLYK | 9.42 | 4.80 | 7.76 | 7.07 | 8.91 | 
SMASLKSLY | 7.42 | 4.79 | 7.58 | 6.16 | 8.92 | 
LFLEEMLRTR |  |  |  |  |  | pKd [2, 13]: 6.16; pKd [4, 13]: 6.14
IFLFLMSGR |  |  |  |  |  | pKd [2, 16]: 8.00; pKd [4, 16]: 7.22
VTNHMEGEHK |  |  |  |  |  | pKd [1, 13]: 6.29
